Experimental data: patent US20140072613A1 (published 2014)

T1: TSSK1(h) (human, UniProt Q9BXA7 1-367)
T1 sequence (looked up): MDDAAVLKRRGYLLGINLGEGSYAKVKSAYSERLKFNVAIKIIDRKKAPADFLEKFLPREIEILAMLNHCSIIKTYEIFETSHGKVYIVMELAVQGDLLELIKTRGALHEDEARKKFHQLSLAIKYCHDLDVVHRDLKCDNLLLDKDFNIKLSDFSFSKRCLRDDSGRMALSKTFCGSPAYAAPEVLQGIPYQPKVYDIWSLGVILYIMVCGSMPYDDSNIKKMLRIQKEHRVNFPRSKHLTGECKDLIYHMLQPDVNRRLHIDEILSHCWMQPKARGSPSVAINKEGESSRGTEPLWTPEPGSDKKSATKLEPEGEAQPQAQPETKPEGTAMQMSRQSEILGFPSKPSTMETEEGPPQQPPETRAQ

T2: TBK1(h) (human, UniProt Q9UHD2 1-729)
T2 sequence (looked up): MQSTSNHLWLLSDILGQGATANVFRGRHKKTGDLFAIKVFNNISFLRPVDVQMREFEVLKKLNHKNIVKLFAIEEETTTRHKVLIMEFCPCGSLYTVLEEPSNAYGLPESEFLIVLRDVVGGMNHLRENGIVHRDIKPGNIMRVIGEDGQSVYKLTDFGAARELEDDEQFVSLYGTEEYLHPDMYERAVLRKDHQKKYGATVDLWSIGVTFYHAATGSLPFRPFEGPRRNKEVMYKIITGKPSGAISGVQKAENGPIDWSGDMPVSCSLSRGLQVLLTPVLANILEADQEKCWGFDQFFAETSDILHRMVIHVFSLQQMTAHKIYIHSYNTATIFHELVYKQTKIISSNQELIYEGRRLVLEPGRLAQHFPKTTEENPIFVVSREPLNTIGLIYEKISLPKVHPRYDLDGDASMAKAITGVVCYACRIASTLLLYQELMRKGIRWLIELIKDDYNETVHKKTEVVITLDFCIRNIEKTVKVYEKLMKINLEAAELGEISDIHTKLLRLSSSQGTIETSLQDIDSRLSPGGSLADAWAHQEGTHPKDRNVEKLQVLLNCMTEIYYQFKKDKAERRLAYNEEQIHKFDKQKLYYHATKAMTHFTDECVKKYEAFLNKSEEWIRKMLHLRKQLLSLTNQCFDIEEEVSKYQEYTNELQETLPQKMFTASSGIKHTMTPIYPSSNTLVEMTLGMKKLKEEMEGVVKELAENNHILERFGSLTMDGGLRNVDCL

T3: Flt1(h) (human, UniProt P17948 781-1338, limits assumed)
T3 sequence (looked up): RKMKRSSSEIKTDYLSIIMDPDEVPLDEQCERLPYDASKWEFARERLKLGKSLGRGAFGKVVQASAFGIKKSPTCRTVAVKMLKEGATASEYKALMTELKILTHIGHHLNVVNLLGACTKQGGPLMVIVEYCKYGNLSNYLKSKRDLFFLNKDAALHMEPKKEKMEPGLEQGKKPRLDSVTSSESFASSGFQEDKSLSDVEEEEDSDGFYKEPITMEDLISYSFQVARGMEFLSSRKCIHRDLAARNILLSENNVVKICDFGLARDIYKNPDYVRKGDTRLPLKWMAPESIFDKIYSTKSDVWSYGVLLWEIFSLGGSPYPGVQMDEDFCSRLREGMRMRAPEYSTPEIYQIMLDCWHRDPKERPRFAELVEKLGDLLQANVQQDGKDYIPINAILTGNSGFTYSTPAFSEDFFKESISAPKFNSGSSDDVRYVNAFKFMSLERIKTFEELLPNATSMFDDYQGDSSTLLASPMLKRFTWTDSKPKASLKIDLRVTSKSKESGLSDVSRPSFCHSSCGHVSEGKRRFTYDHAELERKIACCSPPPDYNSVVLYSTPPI

T4: TSSK2(h) (human, UniProt Q96PF2 1-358)
T4 sequence (looked up): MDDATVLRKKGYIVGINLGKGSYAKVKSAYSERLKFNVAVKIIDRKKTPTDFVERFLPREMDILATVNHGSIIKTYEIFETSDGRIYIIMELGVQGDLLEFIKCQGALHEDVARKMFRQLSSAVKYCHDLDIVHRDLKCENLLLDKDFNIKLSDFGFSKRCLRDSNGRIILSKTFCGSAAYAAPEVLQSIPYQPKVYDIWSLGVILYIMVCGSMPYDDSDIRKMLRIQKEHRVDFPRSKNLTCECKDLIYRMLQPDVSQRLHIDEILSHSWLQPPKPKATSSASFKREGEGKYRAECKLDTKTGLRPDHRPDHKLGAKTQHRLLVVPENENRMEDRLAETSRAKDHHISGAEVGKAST

T5: MST1(h) (human, UniProt Q13043 1-487)
T5 sequence (looked up): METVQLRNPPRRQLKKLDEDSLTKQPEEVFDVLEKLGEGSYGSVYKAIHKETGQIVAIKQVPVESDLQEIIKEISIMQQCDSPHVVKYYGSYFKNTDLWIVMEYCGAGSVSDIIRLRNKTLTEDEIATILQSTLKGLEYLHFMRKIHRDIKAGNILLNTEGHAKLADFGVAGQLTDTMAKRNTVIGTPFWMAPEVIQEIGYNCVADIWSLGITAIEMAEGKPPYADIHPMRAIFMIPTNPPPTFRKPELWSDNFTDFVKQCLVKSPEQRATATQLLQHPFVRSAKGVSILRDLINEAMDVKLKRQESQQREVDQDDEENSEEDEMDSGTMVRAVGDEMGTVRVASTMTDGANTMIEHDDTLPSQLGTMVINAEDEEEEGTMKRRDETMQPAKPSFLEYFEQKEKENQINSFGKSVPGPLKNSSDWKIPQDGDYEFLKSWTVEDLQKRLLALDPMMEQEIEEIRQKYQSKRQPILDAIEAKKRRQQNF


What was measured:
Assay in all cases: cell-based or functional assay
IRR(h) = IRR(h) (human, UniProt P14616 960-1297, limits assumed)
Sequence of IRR(h) (P14616 960-1297 limits assumed): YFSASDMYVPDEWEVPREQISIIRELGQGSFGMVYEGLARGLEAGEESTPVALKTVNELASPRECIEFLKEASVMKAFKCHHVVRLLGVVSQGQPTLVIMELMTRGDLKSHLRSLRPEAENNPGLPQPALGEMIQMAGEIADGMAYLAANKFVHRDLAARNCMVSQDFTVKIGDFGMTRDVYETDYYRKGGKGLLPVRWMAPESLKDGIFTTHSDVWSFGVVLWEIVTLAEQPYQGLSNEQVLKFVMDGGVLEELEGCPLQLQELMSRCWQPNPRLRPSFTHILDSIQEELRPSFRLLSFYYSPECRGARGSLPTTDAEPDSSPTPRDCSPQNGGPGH

SAPK2a(h) = SAPK2a(h) (human, UniProt Q16539 1-360)
Sequence of SAPK2a(h) (Q16539 whole entry): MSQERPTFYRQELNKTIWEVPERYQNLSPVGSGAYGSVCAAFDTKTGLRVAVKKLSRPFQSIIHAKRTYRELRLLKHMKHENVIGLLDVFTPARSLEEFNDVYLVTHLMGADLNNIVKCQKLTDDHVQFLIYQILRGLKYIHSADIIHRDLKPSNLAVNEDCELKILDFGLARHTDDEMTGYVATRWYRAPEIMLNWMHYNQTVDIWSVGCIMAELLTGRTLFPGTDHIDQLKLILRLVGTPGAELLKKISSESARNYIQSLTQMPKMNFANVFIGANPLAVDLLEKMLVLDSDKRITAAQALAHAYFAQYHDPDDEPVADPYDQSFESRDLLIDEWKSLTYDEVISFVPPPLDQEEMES

TSSK1(h) = biological target: T1, TSSK1(h)
Src(1-530)(h) = Src(1-530)(h) (human, UniProt P12931 1-530)
CaMKI(h) = CaMKI(h) (human, UniProt Q14012 1-370)
Sequence of CaMKI(h) (Q14012 whole entry): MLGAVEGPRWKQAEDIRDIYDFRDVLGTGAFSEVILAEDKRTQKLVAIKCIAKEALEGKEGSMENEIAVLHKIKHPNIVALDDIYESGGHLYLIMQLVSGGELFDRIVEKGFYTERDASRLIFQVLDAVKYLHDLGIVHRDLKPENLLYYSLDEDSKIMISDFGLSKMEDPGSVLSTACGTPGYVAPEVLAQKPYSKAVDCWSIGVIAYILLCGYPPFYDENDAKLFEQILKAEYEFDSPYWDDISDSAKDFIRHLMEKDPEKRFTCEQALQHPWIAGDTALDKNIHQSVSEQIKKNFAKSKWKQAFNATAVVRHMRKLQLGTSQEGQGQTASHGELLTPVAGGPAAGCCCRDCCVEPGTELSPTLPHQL

SAPK2b(h) = SAPK2b(h) (human, UniProt Q15759 1-364)
Sequence of SAPK2b(h) (Q15759 whole entry): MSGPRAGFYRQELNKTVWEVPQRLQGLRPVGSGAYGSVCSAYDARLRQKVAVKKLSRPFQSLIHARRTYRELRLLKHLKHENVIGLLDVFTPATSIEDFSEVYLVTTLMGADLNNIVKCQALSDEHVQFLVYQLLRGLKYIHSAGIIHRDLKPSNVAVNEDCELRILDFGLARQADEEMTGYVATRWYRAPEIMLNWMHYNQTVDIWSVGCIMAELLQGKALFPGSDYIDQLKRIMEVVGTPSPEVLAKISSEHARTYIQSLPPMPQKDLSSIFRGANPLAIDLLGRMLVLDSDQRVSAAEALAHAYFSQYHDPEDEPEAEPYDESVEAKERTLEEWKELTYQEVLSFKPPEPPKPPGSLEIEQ

TBK1(h) = biological target: T2, TBK1(h)
Flt1(h) = biological target: T3, Flt1(h)
TSSK2(h) = biological target: T4, TSSK2(h)
PKBγ(h) = PKBγ(h) (human, UniProt Q9Y243 1-479, limits assumed)
Sequence of PKBγ(h) (Q9Y243 whole entry): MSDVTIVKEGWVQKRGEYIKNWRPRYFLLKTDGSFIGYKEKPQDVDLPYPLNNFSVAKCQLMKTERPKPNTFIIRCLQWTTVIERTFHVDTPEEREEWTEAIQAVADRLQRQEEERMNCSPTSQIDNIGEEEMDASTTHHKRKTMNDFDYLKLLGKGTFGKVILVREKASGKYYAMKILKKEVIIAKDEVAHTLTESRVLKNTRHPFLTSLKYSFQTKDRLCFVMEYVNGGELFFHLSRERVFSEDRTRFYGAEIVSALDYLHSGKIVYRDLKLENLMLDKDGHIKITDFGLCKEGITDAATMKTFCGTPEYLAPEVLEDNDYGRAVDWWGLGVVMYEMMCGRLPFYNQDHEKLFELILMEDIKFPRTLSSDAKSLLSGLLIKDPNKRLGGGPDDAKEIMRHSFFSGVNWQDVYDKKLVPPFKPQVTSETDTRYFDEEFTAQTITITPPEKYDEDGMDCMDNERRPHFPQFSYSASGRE

MST1(h) = biological target: T5, MST1(h)

| Binder | % activity, 100 µM (IRR(h)) [%] | % activity, 100 µM (SAPK2a(h)) [%] | % activity, 100 µM (TSSK1(h)) [%] | % activity, 100 µM (Src(1-530)(h)) [%] | % activity, 100 µM (CaMKI(h)) [%] | % activity, 100 µM (SAPK2b(h)) [%] | % activity, 100 µM (TBK1(h)) [%] | % activity, 100 µM (Flt1(h)) [%] | % activity, 100 µM (TSSK2(h)) [%] | % activity, 100 µM (PKBγ(h)) [%] | % activity, 100 µM (MST1(h)) [%] |
| --- | --- | --- | --- | --- | --- | --- | --- | --- | --- | --- | --- |
| FAKLAARLYRKALARQLGVAA [MMI-0300] | 8 | 90 | 79 | 23 | 1 | 81 | 37 | 69 | 98 | 20 | 14 |
| KAFAKLAARLYRKALARQLGVAA [MMI-0400] | 8 | 85 | 79 | 19 | 0 | 82 | 39 | 48 | 94 | 41 | 6 |
